Test results from article doi:10.1101/2025.05.16.654284 (bioRxiv, 2025).

T1: YbbP (E. coli, UniProt P77504 1-804)
T1 sequence: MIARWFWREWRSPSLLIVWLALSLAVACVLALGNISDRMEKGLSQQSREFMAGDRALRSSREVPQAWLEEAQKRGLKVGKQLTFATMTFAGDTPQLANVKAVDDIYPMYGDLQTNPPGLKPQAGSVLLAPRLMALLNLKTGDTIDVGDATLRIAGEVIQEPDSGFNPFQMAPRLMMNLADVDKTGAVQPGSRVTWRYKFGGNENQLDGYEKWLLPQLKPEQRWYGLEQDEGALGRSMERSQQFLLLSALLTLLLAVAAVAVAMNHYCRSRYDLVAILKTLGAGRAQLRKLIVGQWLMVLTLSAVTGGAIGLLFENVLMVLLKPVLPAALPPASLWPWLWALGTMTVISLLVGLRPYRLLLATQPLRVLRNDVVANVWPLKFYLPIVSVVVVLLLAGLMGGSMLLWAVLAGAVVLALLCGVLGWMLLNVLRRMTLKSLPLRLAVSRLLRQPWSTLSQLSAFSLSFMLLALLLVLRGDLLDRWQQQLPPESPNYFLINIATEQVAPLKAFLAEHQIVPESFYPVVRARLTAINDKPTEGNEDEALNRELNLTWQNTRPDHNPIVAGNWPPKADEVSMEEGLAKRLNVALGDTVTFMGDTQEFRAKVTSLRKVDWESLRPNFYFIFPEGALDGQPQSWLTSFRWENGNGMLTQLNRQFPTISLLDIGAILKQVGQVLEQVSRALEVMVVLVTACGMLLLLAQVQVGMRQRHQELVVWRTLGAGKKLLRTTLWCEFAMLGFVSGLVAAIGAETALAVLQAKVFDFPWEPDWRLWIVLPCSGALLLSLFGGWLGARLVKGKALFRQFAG


Biological target: T1, YbbP
Assay: cryo-EM structure

| Binder | stoichiometry N |
| --- | --- |
| YbbA (natural protein, E. coli) MPAENIVEVHHLKKSVGQGEHELSILTGVELVVKRGETIALVGESGSGKSTLLAILAGLDDGSSGEVSLVGQPLHNMDEEARAKLRAKHVGFVFQSFMLIPTLNALENVELPALLRGESSAESRNGAKALLEQLGLGKRLDHLPAQLSGGEQQRVALARAFNGRPDVLFADEPTGNLDRQTGDKIADLLFSLNREHGTTLIMVTHDLQLAARCDRCLRLVNGQLQEEA | 2 |
| TesA Ser36Ala (enzyme, E. coli, UniProt P0ADA1 27-208, looked up) ADTLLILGDALSAGYRMSASAAWPALLNDKWQSKTSVVNASISGDTSQQGLARLPALLKQHQPRWVLVELGGNDGLRGFQPQQTEQTLRQILQDVKAANAEPLLMQIRLPANYGRRYNEAFSAIYPKLAKEFDVPLLPFFMEEVYLKPQWMQDDGIHPNRDAQPFIADWMAKQLQPLVNHDS | 1 |
